Assay results from the supplement of paper PMC10598134.
± gives the standard deviation.

Assay: collision cross section of unmodified peptide (TIMS, N2, iRT-aligned); higher = larger / more extended gas-phase ion
Method in brief: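 Collision cross section values rest on the Mason-Schamp equation applied to calibrated, run-aligned mobility data from synthetic peptides. Mobility (1/K0) was calibrated with three reference ions and aligned per run to the median iRT peptide deviation, and 1–3 technical replicates of the most abundant feature per charge state were averaged. Data came from a timsTOF Pro/HT in dda-PASEF mode (nitrogen, ~2.4 mbar) after a 120-min nanoflow C18 gradient at 60 °C.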

Substance	collision cross section (charge state: 2) [Å²]	collision cross section (charge state: 3) [Å²]
LYLPVQNK	336.72 ± 0.73	
GERGFPGYPGPK	366.2 ± 1.3	460.83 ± 0.86
GDRGEIGPPGPR	366.43 ± 0.3	425.03 ± 1.2
GLQGPPGK	292.79 ± 0.8	
GGRGTPGK	284.56 ± 17	
SDDESSQKDIK	372.47 ± 1.1	449.63 ± 0.82
GKLGVPGLPGYPGR	385.87 ± 0.86	480.85 ± 1.2
VEPIHAVVLPRGK	414.74 ± 1.1	483.53 ± 1.8
EEKPAVTAAPK	359.42 ± 0.68	467.02 ± 0.22
SYHLQIVTK	344.3 ± 0.59	447.43 ± 1.7
FSHSVQNSERGK	402.29 ± 0.72	464.33 ± 2.2
YTQVGPDHNR	354.55 ± 0.7	423.12 ± 2
VYSLFLDESR	376.99 ± 0.94	
TPNLYIYSKK	381.12 ± 1.4	430.18 ± 4.5
GERGPPGPPGK	325.96 ± 0.79	437.43 ± 1.2
SFEDIHQYR	359.99 ± 0.48	450.82 ± 1.1
HFGPVPPSQGRGR		493.79 ± 0.89
GEPGIPAIPGIR	347.87 ± 0.23	
APPIDRSILPTAPR	416.59 ± 1.1	492.42 ± 3.4
IQTKAGEATVK	361.35 ± 0.94	457.37 ± 4.1
SYISSQTNDTHK	399.56 ± 0.14	459.19 ± 1.2
TVTNAVVTVPAYFNDSQR	471.11 ± 0.99	576.65 ± 1.1
ANEKTESSSAQQVAVSR	440.94 ± 1.7	497.75 ± 27

Substance	collision cross section (charge state: 2) [Å²]	collision cross section (charge state: 3) [Å²]
ITESVAETAQTIKK	434.75 ± 1.5	508.11 ± 2.5
GYLGPEQLPDCLK	401.23 ± 0.16	
FIHQQPQSSSPVYGSSAK		514.9 ± 0.21
IPPTYQIR	332.62 ± 0.59	
TGPPGSTGSR	307.73 ± 0.78	
LNAIYQNNLTK	381.14 ± 0.16	
LDHLAEKFR	365.36 ± 1.5	453.05 ± 4
YEITEQR	326.96 ± 0.72	
PGLQGPR	285.1 ± 4.4	
PDTQYTGR	315.91 ± 0.73	
TQSFSLQER	347.63 ± 0.14	
DSINFLDHINGKK		459.87 ± 3.8
GHPGPPGPPGEQGLPGLAGK	440.68 ± 1.2	497.21 ± 14
GAPGPQGPPGPPGK	357.97 ± 0.58	
LGVPGLPGYPGRQGPK	416.71 ± 0.59	493.33 ± 24
FPGVGVLPGVPTGAGVK	421.12 ± 0.5	509.46 ± 1.2
ANLEKAQAELVGTADEATR	474.85 ± 3.3	519.38 ± 2.8
PGPKGEAGPTGPQGEPGVR	431.75 ± 0.38	479.17 ± 5.1
GDIGETGVPGAEGPR	381.04 ± 0.92	
LELAQYR	324.63 ± 0.15	
LDINTNTYTSQDLK	418.99 ± 0.69	
RGGFAVQAK	337.58 ± 0.46	
FHYQDQEFLK	406.29 ± 0.68	457.95 ± 1.7

Substance	collision cross section (charge state: 2) [Å²]	collision cross section (charge state: 3) [Å²]
IPQEKCILQTDVK	428.77 ± 2.5	470.55 ± 3.7
SGATAGAAGGRGK	361.16 ± 1.5	443.5 ± 4.6
GYDVIAQAQSGTGK	388.46 ± 0.16	
KVTLSVLSR	348.44 ± 0.58	443.31 ± 0.22
SGKFTQQDIDEAK	412.77 ± 2.3	486.03 ± 4.9
IYELAAGGTAVGTGLNTR	443.72 ± 1	
LQIASDENYK	357.85 ± 0.48	
IPAASAAAMNLASAR	397.84 ± 0.66	496.43 ± 0.86
GRGAPPPPPSR	341.09 ± 1.1	436.88 ± 3.2
GSRGFPGEK	330.16 ± 0.23	
VLTANSNPSSPSAAKR	431.51 ± 2	517.98 ± 8.8
YLHDESGLNR	361.42 ± 0.55	447.46 ± 1.1
GLPGPPGPQGESR	356.03 ± 0.79	
VLSIGDGIAR	348.04 ± 0.14	
KITESVAETAQTIK	420.69 ± 0.66	480.58 ± 0.22
GAPGGRGAQLSVPSPAR	428.52	492.17 ± 0.93
SEGFDTYR	330.1 ± 0.73	
VELCSFSGYK	358.19 ± 0.59	
AQVLAGGRGK	345.66 ± 0.88	
DVFISAAER	340.13 ± 0.68	
GVPRGVHLGSQGLQR	424.25	484.7 ± 1.8
FGDSRGGGGNFGPGPGSNFR		494.59 ± 1.9
VSFLSALEEYTK	392.46 ± 0.78	

Substance	collision cross section (charge state: 2) [Å²]	collision cross section (charge state: 3) [Å²]
TVQGPPGEPGR	344.87 ± 3.1	
AAGQPYEQHAK	373.09 ± 0.48	423.62 ± 1.7
SQAGASELGPFSDPR	396.36 ± 0.66	
VQFAPEKPGPQPSAETTR		507.38 ± 9.7
SYVDTGGVSR	337.16 ± 0.15	
STCTYVGAAK	334.15 ± 0.48	
YSRGAGLGFSTAPNK	407.91 ± 1.8	476.78 ± 0.4
TQDQISNIKYHEEFEK	459.39	550.5 ± 0.31
YEATSVQQK	342.24 ± 1.4	
GTGRGGGGGGGGGAPR	356.62	435.15 ± 5.4
ISSNFSSIIAEKLR	430.92 ± 3.1	511.25 ± 4.9
LLFSNTAAQKLR	416.62 ± 2.1	485.85 ± 3.4
AQPQDSRGGSK	349.19 ± 0.54	421.45 ± 6.4
SKHLQEQLNELK	411.35 ± 1.6	481.15 ± 4.4
PRGVISTPVIR	371.76 ± 0.55	450.44 ± 3.9
GSIGFPGFPGANGEKGGR		519.37 ± 1.2
RLDINTNTYTSQDLK		533.11 ± 1
GPPGPPGR	295.47 ± 0.78	
GLPGEKGER	342.99 ± 1.2	394.07 ± 1.2
GDQGEPGPSGNPGK	342.01 ± 0.23	
VDIDVPDVNIEGPDAKLK	470.4 ± 2.9	542.58 ± 2
VIVGGSSEYK	346.7 ± 0.59	
GDAGEPGR	283.75 ± 1.9	
